Source: the DeepSol protein solubility set

Experiment: soluble on expression in E. coli; label from the status in PepcDB or PDB records

Soluble on expression in E. coli, not soluble:
MGSDKIHHHHHHMEKQYEYVHEKFRHLVIASNQERIEFLDEPRWVGYAVANKIIDNLVSLMNKPKRPRMFNLLVVGDSNNGKTTLIRHFYDLYGIPFVDSQSDGIRPIILAEAPPSANEKELYISLLERFYVPYRPTDSVAKLRYQTIHLFREYKVKMLIIDEFHSLLVGTPRLQRQVMNAIKMLCNELQIPIVGVGTKDAIRVLHTDPQHASRFDVAELPTWKLDKDFQKLLFQFQGILPLKKCSNLQSPELATKIHTISGGNLGNVHRLLTACAIEAITTGTEQITLDIIEHNSWVQPTQGLRKIIG, MGSDKIHHHHHHMEKRLDYITDLMALGPTANARTIQRRQTAHRLAIAEAWQVKPGEKILEIGCGQGDLSAVLADQVGSSGHVTGIDIASPDYGAPLTLGQAWNHLLAGPLGDRLTVHFNTNLSDDLGPIADQHFDRVVLAHSLWYFASANALALLFKNMAAVCDHVDVAEWSMQPTALDQIGHLQAAMIQGLLYAIAPSDVANIRTLITPDTLAQIAHDNTWTYTAGTIVEDPTLDDAHWEIATTNALLTELKLSTDLRDRVKPLLEAMSHNGTASLATFTGRITF, MGSDKIHHHHHHMELVIRDIRKRFQETEVLRGASYRFYSGKITGVLGRNGAGKTTLFNILYGDLAADNGTICLLKDNHEYPLTDKDIGIVYSENYLPEFLTGYEFVKFYMDLHPSDDLMTIDDYLDFMEIGQTERHRIIKGYSDGMKSKLSLICLMISKPKVILLDEPLTAVDVVSSIAIKRLLLELSEDHIIILSTHIMALAEDLCDIVAVLDKGKLQTLDIDRKHEQFEERLLQVLKGDEYDK, MGSDKIHHHHHHMELYRDPSQPIEVRVRDLLSRMTLEEKVAQLGSVWGYELIDERGKFSREKAKELLKNGIGQITRPGGSTNLEPQEAAELVNEIQRFLVEETRLGIPAMIHEECLTGYMGLGGTNFPQAIAMASTWDPDLIEKMTTAVREDMRKIGAHQGLAPVLDVARDPRWGRTEETFGESPYLVARMGVSYVKGLQGEDIKKGVVATVKHFAGYSASEGGKNWAPTNIPEREFKEVFLFPFEAAVKEANVLSVMNSYSEIDGVPCAANRKLLTDILRKDWGFEGIVVSDYFAVKVLEDYHRIARDKSEAARLALEAGIDVELPKTECYQYLKDLVEKGIISEALIDEAVTRVLRLKFMLGLFENPYVEVEKAKIESHRDIALEIARKSIILLKNDGILPLQKNKKVALIGPNAGEVRNLLGDYMYLAHIRALLDNIDDVFGNPQIPRENYERLKKSIEEHMKSIPSVLDAFKEEGIEFEYAKGCEVTGEDRSGFEEAIEIAKKSDVAIVVVGDKSGLTLDCTTGESRDMANLKLPGVQEELVLEVAKTGKPVVLVLITGRPYSLKNVVDKVNAILQVWLPGEAGGRAIVDIIYGKVNPSGKLPISFPRSAGQIPVFHYVKPSGGRSHWHGDYVDESTKPLFPFGHGLSYTKFEYSNLRIEPKEVPPAGEVVIKVDVENIGDRDGDEVVQLYIGREFASVTRPVKELKGFKRVSLKAKEKKTVVFRLHMDVLAYYNRDMKLVVEPGEFKVMVGSSSEDIRLTGSFSVVGEKREVVGMRKFFTEACEE, MGSDKIHHHHHHMEMRFFVLGAGSWGTVFAQMLHENGEEVILWARRKEIVDLINVSHTSPYVEESKITVRATNDLEEIKKEDILVIAIPVQYIREHLLRLPVKPSMVLNLSKGIEIKTGKRVSEIVEEILGCPYAVLSGPSHAEEVAKKLPTAVTLAGENSKELQKRISTEYFRVYTCEDVVGVEIAGALKNVIAIAAGILDGFGGWDNAKAALETRGIYEIARFGMFFGADQKTFMGLAGIGDLMVTCNSRYSRNRRFGELIARGFNPLKLLESSNQVVEGAFTVKAVMKIAKENKIDMPISEEVYRVVYEGKPPLQSMRDLMRRSLKDEFWASVVDSSL, MGSDKIHHHHHHMENALLVGLSRQVVLERQMDVVANNLANLNTNGFKAERSVFQEFLNTGAHEDNFARPDRRVSFVQDRATYHDLSTGALQETKNPLDVAIDGKGFLVVQTPQGERFTRDGSLTINAQGQLVNGSGFPVLGTGGPIVIQPTDKELSISPDGRVSVVEGTSIIDSLRGKLRVVTFDRPQSLIKQGGNLFAATSDQGTPDTKSMVRQGYVEKSNVNSVLEMTRMIDVTRTYTQISAMLQQESELRKTAIEKLAEVPA, MGSDKIHHHHHHMENLIFDIGFHKGEDTLFYLLKGYRVIAVDADPDLINEWQNIFKKYIENGKLLLLNYVISDTNDVDTDFYIGPNTIWSSTKVSISSRMCCKAIKKKIKSKRLDHLFHEYGTPFYCKIDIEGNDIIALQTMEKVSEKPLYISVETECIGEDEDIAGHELDTLNALYQLGYRKFKLVDQRTLTVLDYNCFYKNNSEHNWFEQIETNCKYAEELIVLSDTDQRVKFTDFFPGSSGPFGEELAGKWYDYPQAKEMLKKHREDKMRLNEPAWTFWCDWHATF, MGSDKIHHHHHHMENVVPPFKVDVAGTFLLPAALREAREQYRNEQISLLTLRAVEDAEIRNLVDRLKAEGLKVVTDGRFRSDAWPLDFMCGLDGIRFRDDRKTSVELTGRIDVHHHPVLDDFVFLTGVTGGDVIAKQVLPAPSRLLAELMKDANRTELDSVYPDREILLVDLAQTYQKLIMELYRSGCRYLQLDDATRTVTDNAIRVNNMALENLPADLFIAFHSPTEMLFSLQGIHAFFLDYDSECCGKNRLLWFIREKQSVFGFVLSHYPVEEELEELRAKIDQIIRYIPSHRFSLCIPNAEVLPSESYEAAEEKQWHTLKMAEMVAGELWPEEG, MGSDKIHHHHHHMESVGDVLKRQPSRFYYQDLVQKIMKDPDVAAFIQQESLTPKELNRSISKFNQYITERDKFLRGDTDYIAKGYKPILVKNHGYADVSYEETPELIAAEKEAAIKNRLKLINLPASLKKASLAQVDLDDLGRLPVFEKLLAFVEQYPAIRKGLYLYGDFGVGKSFMVAALAHDLSEKRGVSSTLLHYPSFVIDVKNAISDGNVKTLVDEIKLSEVLILDDIGAEQSTVWVRDEILQVILQYRMQENLPTFFTSNFNFEDLEKHFAKVKHGNDETWEARRVMERIRYLAEETRLEGVNRR, MGSDKIHHHHHHMETVNILGTGSAMVTKCYNTCFTLSNGDEHFLVDTGGGNTILTNLEKLHIGIDKIHNVFISHRHNDHITGIIWIIRAVAQRIINGKYDGDLKIYCCKENIEVINTICKLLLEKKFTKYMGNRIVFSEIYDGCRLKVLDWDIEFFDIKSTKQLQFGFTTVLKSGKKLTFLGDEPYRENLYEYANNSDYIFHEAFCLYSEKDIFKPYEKHHATVKDACENADKLSVKNIILYHTEDKNIEKRKELYIGEGSKFFKGNIIVPDDLETIELK, MGSDKIHHHHHHMEVDNKRRHSEDELKQEAVKKIKSQEPNYAYLETVVREKLDFDSEKICCITLSPLNVYCCLVCGHYYQGRHEKSPAFIHSIDENHHVFLNLTSLKFYMLPQNVQILHDGEVQLLNSIKFAAYPTYCPKDLEDFPRQCFDLSNRTYLNGFIGFTNAATYDYAHSVLLLISHMVPVRDHFLLNHFDNQGEFIKRLSICVKKIWSPKLFKHHLSVDDFVSYLKVREGLNLNPIDPRLFLLWLFNKICSSSNDLKSILNHSCKGKVKIAKVENKPEASESVTGKVIVKPFWVLTLDLPEFSPFEDGNSVDDLPQINITKLLTKFTKSRSSSTSTVFELTRLPQFLIFHFNRFDRNSDHPVKNRNQTLVEFSSELEILHVKYRLKANVVHVVIKQPSTDGNAFNGDEKSHWITQLYDNKSEKWIEIDGINTTEREAELLFLKETFIQVWEKQE, MGSDKIHHHHHHMEVIHPRCAGVDISKKDAKVCVRIQGRGGRSTTSTITTWGSMTGQILGLKEHLLDEHVDLVVMEATGDYWRPFYYLLEDDGLNIILVNAHDARNVPGRKTDVSDAAWLADLGAHGLVRASFVPPPPIRELRDLTRARTIITQERTREIQRLEKLLEDACIKLSSVASNITGVSGRLILQALIDGQTDPAALAEMAQRRLRSKIPELTQALNGRFTEHHRYMTGLYLHRIDAHTADINDLSARIEAAMEPFRFARELLVSIPGFSTTIAEIFIAETGADMSAFATAGQLASWAGTSPGSNESAGRVKSTKTRPGNRYLKGALGIAALSCAKSKNTYLGARYRRIASRRGPAKALVAVEHSILTAAWHMLTTGELYNDPGADYFTRQTPVKTMARAVRQLESLGYQVILEPLQQTG, MGSDKIHHHHHHMEYINEVTINEAIIHVLDNSSEGVVFNEVELELNEETYEYILKHIQKCLKDEELKYAVFNVERNLAKELSQEYLDGKSDIVSVSKELASQLFVIMKSNGNIPSCDLLTAAITTEYGRMLVVLKMDYVKNYTHNIDVVDDKVEINIIPQFIGLPSSGQKIQKCAFIKPIREENNFDLMVIDKNSGKKDEDEYGSNYFINNYLGCKIINNERDLTKTFVKSAEKWTQKNLKDNADAAELVRTSIKKRLKEDDSININEVSDEIFGENKEAKDNFVEFIKKQGIEEKIELDKQWVENKMKRTRLKIDKDIDLYINEETYNDSSRFEIKRNGDGTINMIIKQVRNYVEK, MGSDKIHHHHHHMFEIKTDDFEGIEIVKLINTVSGEYASIIPSFGGNIHELVLQKHNILHDVIYTNKNKEELSGFYSNLYRGAKLNPFSNRIDKGSYIFENISYSIPLNDAGIHALHGFVWNKPFSITASKTSFEFATLTLSYTHPKDSADFPFSYTLLVTYKLCIEGLMVTTQITNTSPTAIPMGDGWHPYLTLGSSINTLKLQIPSVQKIETTDTLIPTGKIIEDISFFEPALLGERELDNAFVLDSSVEKAETLLFDEEEDLTLVVWQQTDTYPFVHVYTPSDRMSVAIEPCSAIPDAFNRNMIETTLKPAEKKSYVFGIQLR, MGSDKIHHHHHHMFEKRVLKIKGGSNFRDLGGYQTHDGKKILWGRLFRGSALNNFTNHDLRVLKRRHINTIIDFRSLDESLNDPDIYPETSNDIRLTVLDQDTTYSTITPEEFHRLSHSNGFAYKQMMNTYRRLITDEFSQQAYRQFFDYLLNQDDGAILFHCTKGKDRTGIATALFFLAVGIDKKTIFQDYLLTDTYNHEQTEVELERMVERGEDDDDIDNVKHFLLTDRNYLENAFAAMDEIAGSPQAYLKKYLGLSDEKIQILRNKYLS, MGSDKIHHHHHHMFEWVEKISFSEASPLTAQAQDNKFGFHRKRPEVMAHSHWHGHIEINYLFDCSADYLINGQEISVPEGRMIIFWASIPHQMTACHGDGEIVNIYIPLQAFLTWMLPGEFVSQLLHGEVMVSDSLYVCDRQLTQIWEADIASQEPLLASQVINEIRNRIRRMAIEHYSTFNLAHRSGHGVDKPVFGGLNHIQTMLRYIADHYDQKITIENVAMSTGLHKNYAMKLFNRVMKVSIKQYINQLRLQHAQALLIDTENPVLNIALEAGFGSVSRFYDIFQREFNMSPLEFRRRVG, MGSDKIHHHHHHMFGLIPKEEKFFAMFKDMAANIVTGGKLLKQMLDSYDDPQASQKKIKDVEHACDAITHDIIQKLNKSFVTPFDREDIYALAAALDDIVDLIDASAQRFIMYNVEKPTPEAKELAFLILQGCLAIEKAVSHLGEKFEHIAEHCVEVNALENEADRVCREAISRLFDEEKDPIQLIKWKEIYETLERATDKCEDAANILESVVVKNA, MGSDKIHHHHHHMFIENYCPISADRISFTRQQGSDFAKQVADDFNPLHNIDAKRFCVPGDLLFSIIIAKSGLHKNMTFDFSGMVSDDVHLTFPQEIDESFDIKDDKDKTCLSVHVSGDKTHESVLINALTKAYVDFSGHTFPDILVKLMADNSVMINPARPMVMYQSMSIDLHTLTAETVTLKLAKTSLSIEGKRGDAWLEFDLLSNDKVIGHGKKHMLLSGLRTYEQETIDAMVNQYRDSKKNYQA
